Source: US20210261648A1 (published 2021)

B1: IL6R-F652/IL6R-L (antibody, human IgG1, kappa)
heavy: QVQLQESGPGLVKPSETLSLTCAVSGHSISHDHAWSWVRQPPGEGLEWIGFISYSGITNYNPSLQGRVTISRDNSKNTLYLQMNSLRAEDTAVYYCARSLARTTAMDYWGEGTLVTVSSASTKGPSVFPLAPSSKSTSGGTAALGCLVKDYFPEPVTVSWNSGALTSGVHTFPAVLQSSGLYSLSSVVTVPSSSLGTQTYICNVNHKPSNTKVDKKVEPKSCDKTHTCPPCPAPELLGGDSVFLFPPKPKDTLYISRTPEVTCVVVDVSHEDPEVKFNWYVDGVEVHNAKTKPREEQYNSTYRVVSVLTVLHQDWLNGKEYKCKVSNKALPAPIEKTISKAKGQPREPQVYTLPPSRDELTKNQVSLTCLVKGFYPSDIAVEWESNGQPENNYKTTPPVLDSDGSFFLYSKLTVDKSRWQQGNVFSCSVMHEALHYHYTQKSLSLSP
light: not shown
notes: IL6R-F11 (IL6R-G1d with M252Y/N434Y) with P238D
B2: IL6R-BP912/IL6R-L (antibody, human IgG1, kappa)
heavy: QVQLQESGPGLVKPSETLSLTCAVSGHSISHDHAWSWVRQPPGEGLEWIGFISYSGITNYNPSLQGRVTISRDNSKNTLYLQMNSLRAEDTAVYYCARSLARTTAMDYWGEGTLVTVSSASTKGPSVFPLAPSSKSTSGGTAALGCLVKDYFPEPVTVSWNSGALTSGVHTFPAVLQSSGLYSLSSVVTVPSSSLGTQTYICNVNHKPSNTKVDKKVEPKSCDKTHTCPPCPAPELLGGDSVFLFPPKPKDTLMISRTPEVTCVVVDVSHEDPEVKFNWYVDGVEVHNAKTKPREEQYNSTYRVVSVLTVLHQDWLNGKEYKCKVSNKALPRPIEKTISKAKGQPREPQVYTLPPSRDELTKNQVSLTCLVKGFYPSDIAVEWESNGQPENNYKTTPPVLDSDGSFFLYSKLTVDKSRWQQGNVFSCSVMHEALHNHYTQESLSLSP
light: not shown
notes: Alterations introduced into IL6R-B3
B3: IL6R-PD080/IL6R-L (antibody, human IgG1, kappa)
heavy: QVQLQESGPGLVKPSETLSLTCAVSGHSISHDHAWSWVRQPPGEGLEWIGFISYSGITNYNPSLQGRVTISRDNSKNTLYLQMNSLRAEDTAVYYCARSLARTTAMDYWGEGTLVTVSSASTKGPSVFPLAPSSKSTSGGTAALGCLVKDYFPEPVTVSWNSGALTSGVHTFPAVLQSSGLYSLSSVVTVPSSSLGTQTYICNVNHKPSNTKVDKKVEPKSCDKTHTCPPCPAPELLGDDSVFLFPPKPKDTLYISRTPEVTCVVVDVSHEDPEVKFNWYVDGVEVHNAKTKPREEQYNSTYRVVSVLTVLHQDWLNGKEYKCKVSNKALPAPIEKTISKAKGQPREPQVYTLPPSRDELTKNQVSLTCLVKGFYPSDIAVEWESNGQPENNYKTTPPVLDSDGSFFLYSKLTVDKSRWQQGNVFSCSVMHEALHYHYTQKSLSLSP
light: not shown
notes: PD variant; alterations introduced into IL6R-F11
B4: IL6R-PD082/IL6R-L (antibody, human IgG1, kappa)
heavy: QVQLQESGPGLVKPSETLSLTCAVSGHSISHDHAWSWVRQPPGEGLEWIGFISYSGITNYNPSLQGRVTISRDNSKNTLYLQMNSLRAEDTAVYYCARSLARTTAMDYWGEGTLVTVSSASTKGPSVFPLAPSSKSTSGGTAALGCLVKDYFPEPVTVSWNSGALTSGVHTFPAVLQSSGLYSLSSVVTVPSSSLGTQTYICNVNHKPSNTKVDKKVEPKSCDKTHTCPPCPAPELLGFDSVFLFPPKPKDTLYISRTPEVTCVVVDVSHEDPEVKFNWYVDGVEVHNAKTKPREEQYNSTYRVVSVLTVLHQDWLNGKEYKCKVSNKALPAPIEKTISKAKGQPREPQVYTLPPSRDELTKNQVSLTCLVKGFYPSDIAVEWESNGQPENNYKTTPPVLDSDGSFFLYSKLTVDKSRWQQGNVFSCSVMHEALHYHYTQKSLSLSP
light: not shown
notes: as for B3
B5: IL6R-PD043/IL6R-L (antibody, human IgG1, kappa)
heavy: QVQLQESGPGLVKPSETLSLTCAVSGHSISHDHAWSWVRQPPGEGLEWIGFISYSGITNYNPSLQGRVTISRDNSKNTLYLQMNSLRAEDTAVYYCARSLARTTAMDYWGEGTLVTVSSASTKGPSVFPLAPSSKSTSGGTAALGCLVKDYFPEPVTVSWNSGALTSGVHTFPAVLQSSGLYSLSSVVTVPSSSLGTQTYICNVNHKPSNTKVDKKVEPKSCDKTHTCPPCPAPEYLGGDSVFLFPPKPKDTLYISRTPEVTCVVVDVSHEDPEVKFNWYVDGVEVHNAKTKPREEQYNSTYRVVSVLTVLHQDWLNGKEYKCKVSNKALPAPIEKTISKAKGQPREPQVYTLPPSRDELTKNQVSLTCLVKGFYPSDIAVEWESNGQPENNYKTTPPVLDSDGSFFLYSKLTVDKSRWQQGNVFSCSVMHEALHYHYTQKSLSLSP
light: not shown
notes: as for B3
B6: IL6R-PD086/IL6R-L (antibody, human IgG1, kappa)
heavy: QVQLQESGPGLVKPSETLSLTCAVSGHSISHDHAWSWVRQPPGEGLEWIGFISYSGITNYNPSLQGRVTISRDNSKNTLYLQMNSLRAEDTAVYYCARSLARTTAMDYWGEGTLVTVSSASTKGPSVFPLAPSSKSTSGGTAALGCLVKDYFPEPVTVSWNSGALTSGVHTFPAVLQSSGLYSLSSVVTVPSSSLGTQTYICNVNHKPSNTKVDKKVEPKSCDKTHTCPPCPAPELLGLDSVFLFPPKPKDTLYISRTPEVTCVVVDVSHEDPEVKFNWYVDGVEVHNAKTKPREEQYNSTYRVVSVLTVLHQDWLNGKEYKCKVSNKALPAPIEKTISKAKGQPREPQVYTLPPSRDELTKNQVSLTCLVKGFYPSDIAVEWESNGQPENNYKTTPPVLDSDGSFFLYSKLTVDKSRWQQGNVFSCSVMHEALHYHYTQKSLSLSP
light: not shown
notes: as for B3
B7: IL6R-PD079/IL6R-L (antibody, human IgG1, kappa)
heavy: QVQLQESGPGLVKPSETLSLTCAVSGHSISHDHAWSWVRQPPGEGLEWIGFISYSGITNYNPSLQGRVTISRDNSKNTLYLQMNSLRAEDTAVYYCARSLARTTAMDYWGEGTLVTVSSASTKGPSVFPLAPSSKSTSGGTAALGCLVKDYFPEPVTVSWNSGALTSGVHTFPAVLQSSGLYSLSSVVTVPSSSLGTQTYICNVNHKPSNTKVDKKVEPKSCDKTHTCPPCPAPELLGADSVFLFPPKPKDTLYISRTPEVTCVVVDVSHEDPEVKFNWYVDGVEVHNAKTKPREEQYNSTYRVVSVLTVLHQDWLNGKEYKCKVSNKALPAPIEKTISKAKGQPREPQVYTLPPSRDELTKNQVSLTCLVKGFYPSDIAVEWESNGQPENNYKTTPPVLDSDGSFFLYSKLTVDKSRWQQGNVFSCSVMHEALHYHYTQKSLSLSP
light: not shown
notes: as for B3
B8: IL6R-PD081/IL6R-L (antibody, human IgG1, kappa)
heavy: QVQLQESGPGLVKPSETLSLTCAVSGHSISHDHAWSWVRQPPGEGLEWIGFISYSGITNYNPSLQGRVTISRDNSKNTLYLQMNSLRAEDTAVYYCARSLARTTAMDYWGEGTLVTVSSASTKGPSVFPLAPSSKSTSGGTAALGCLVKDYFPEPVTVSWNSGALTSGVHTFPAVLQSSGLYSLSSVVTVPSSSLGTQTYICNVNHKPSNTKVDKKVEPKSCDKTHTCPPCPAPELLGEDSVFLFPPKPKDTLYISRTPEVTCVVVDVSHEDPEVKFNWYVDGVEVHNAKTKPREEQYNSTYRVVSVLTVLHQDWLNGKEYKCKVSNKALPAPIEKTISKAKGQPREPQVYTLPPSRDELTKNQVSLTCLVKGFYPSDIAVEWESNGQPENNYKTTPPVLDSDGSFFLYSKLTVDKSRWQQGNVFSCSVMHEALHYHYTQKSLSLSP
light: not shown
notes: as for B3
B9: IL6R-PD087/IL6R-L (antibody, human IgG1, kappa)
heavy: QVQLQESGPGLVKPSETLSLTCAVSGHSISHDHAWSWVRQPPGEGLEWIGFISYSGITNYNPSLQGRVTISRDNSKNTLYLQMNSLRAEDTAVYYCARSLARTTAMDYWGEGTLVTVSSASTKGPSVFPLAPSSKSTSGGTAALGCLVKDYFPEPVTVSWNSGALTSGVHTFPAVLQSSGLYSLSSVVTVPSSSLGTQTYICNVNHKPSNTKVDKKVEPKSCDKTHTCPPCPAPELLGMDSVFLFPPKPKDTLYISRTPEVTCVVVDVSHEDPEVKFNWYVDGVEVHNAKTKPREEQYNSTYRVVSVLTVLHQDWLNGKEYKCKVSNKALPAPIEKTISKAKGQPREPQVYTLPPSRDELTKNQVSLTCLVKGFYPSDIAVEWESNGQPENNYKTTPPVLDSDGSFFLYSKLTVDKSRWQQGNVFSCSVMHEALHYHYTQKSLSLSP
light: not shown
notes: as for B3

Tests used:
[1] = target: T1, FcγRIIb extracellular domain with C-terminal His tag (human, UniProt P31994 43-217); assay: SPR binding amount, relative to IL6R-F652/IL6R-L
T1 construct: extracellular domain; For crystallography it was expressed with kifunensine and trimmed with Endo F1; also called FcgRIIb; FcγRIIb extracellular region; not shown: His tag attached to the C terminus
T1 sequence (looked up): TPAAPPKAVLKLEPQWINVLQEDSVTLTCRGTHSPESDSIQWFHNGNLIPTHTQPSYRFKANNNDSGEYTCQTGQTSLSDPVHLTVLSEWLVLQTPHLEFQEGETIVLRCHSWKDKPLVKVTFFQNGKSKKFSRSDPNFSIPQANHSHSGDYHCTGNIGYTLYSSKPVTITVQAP

[2] = target: T2, FcγRIIa type R extracellular domain with C-terminal His tag (human, UniProt P12318 34-217); assay: SPR binding amount, relative to IL6R-F652/IL6R-L
T2 chain: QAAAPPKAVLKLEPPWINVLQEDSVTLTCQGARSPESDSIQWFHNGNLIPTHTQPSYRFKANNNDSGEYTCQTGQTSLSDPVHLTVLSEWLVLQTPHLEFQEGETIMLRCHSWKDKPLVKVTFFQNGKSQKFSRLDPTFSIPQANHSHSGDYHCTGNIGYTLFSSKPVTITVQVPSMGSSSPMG

[3] = target: T3, FcγRIIa type H extracellular domain with C-terminal His tag (human, UniProt P12318 34-217); assay: SPR binding amount, relative to IL6R-BF648/IL6R-L
T3 construct: extracellular domain; also called FcγRIIaH; FcgRIIaH; not shown: His tag attached to the C terminus
T3 sequence (looked up): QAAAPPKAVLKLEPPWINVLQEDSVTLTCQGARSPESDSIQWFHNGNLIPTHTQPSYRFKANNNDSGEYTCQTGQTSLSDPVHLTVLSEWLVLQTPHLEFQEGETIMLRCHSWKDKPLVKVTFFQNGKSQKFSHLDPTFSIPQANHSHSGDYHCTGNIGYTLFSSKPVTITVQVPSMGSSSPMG

[4] = target: T1, FcγRIIb extracellular domain with …; assay: SPR binding amount, relative to IL6R-BF648/IL6R-L
[5] = target: T4, FcγRIa extracellular domain with C-terminal His tag (human, UniProt P12314 16-292); assay: SPR binding amount, relative to IL6R-BF648/IL6R-L
T4 construct: also called FcgRIa; not shown: His tag attached to the C terminus
T4 sequence (P12314 16-292): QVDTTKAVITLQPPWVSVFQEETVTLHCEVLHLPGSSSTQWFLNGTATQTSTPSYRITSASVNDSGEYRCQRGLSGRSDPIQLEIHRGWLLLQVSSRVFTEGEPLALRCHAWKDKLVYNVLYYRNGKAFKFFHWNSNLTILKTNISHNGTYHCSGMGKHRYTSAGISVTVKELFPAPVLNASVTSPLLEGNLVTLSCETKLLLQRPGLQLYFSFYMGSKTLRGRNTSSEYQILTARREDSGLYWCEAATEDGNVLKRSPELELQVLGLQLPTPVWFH

Row | Binder | relative binding activity to FcγRIIb (IL6R-F652/IL6R-L = 100) [1] | relative binding activity to FcγRIIaR (IL6R-F652/IL6R-L = 100) [2] | relative binding activity (IL6R-BF648/IL6R-L = 100) [3] | relative binding activity (IL6R-BF648/IL6R-L = 100) [4] | relative binding activity (IL6R-BF648/IL6R-L = 100) [5]
1 | B1 | 100 | 100 |  |  | 
2 | B2 |  |  | 93 | 103 | 60
3 | B3 | 127 | 222 |  |  | 
4 | B4 | 108 | 380 |  |  | 
5 | B5 | 112 | 175 |  |  | 
6 | B6 | 112 | 268 |  |  | 
7 | B7 | 101 | 138 |  |  | 
8 | B8 | 101 | 117 |  |  | 
9 | B9 | 109 | 196 |  |  | 
